According to paper PMC139967 (BMC Biochemistry, 2002):

Key:
bovine-brain calmodulin = bovine-brain calmodulin (bovine, UniProt P62157 1-149); test: other fluorescence titration
[1] = target: Alexa Fluor 488 calmodulin (UniProt P62157 1-149); test: other fluorescence titration

| Binder | stoichiometry N (bovine-brain calmodulin) [peptide per calmodulin] | Kd [1] [nM] |
| --- | --- | --- |
| CHMKHSAVEIQSWWRGTIGRRKAA [bullfrog Myo1c IQ2 peptide] | 1 |  |
| CKRKWAVDVVRRFIKGFIYRNQPR [bullfrog Myo1c IQ3 peptide] | 1 | 2000 |
| CRKHSIATFLQARWRGYHQRQKFL [bullfrog Myo1c IQ1 peptide] | 1 |  |
